Target: T1, CCT
T1 construct: Take 20S mouse testis sucrose gradient fractions enriched in CCT; from tissue; host or cells: mouse testis, 20S sucrose gradient fractions
Test: CCT binding to immobilised actin peptide array (Pepset pins, MAb 91a ELISA, absorbance 410 nm)
Conditions: FIG. 9; mouse testis CCT
Excerpt: Peptides of 15 amino acids in length were synthesised on polyethylene pins mounted on blocks according to the method of Maeji et al (Maeji N. J. et al, 1994) and commercially available under the trade name of Pepsets™ from Chiron Mimotopes. The sequence of the peptides were such that they defined the full length of the actin sequence with a 5 amino acid overlap between the sequential peptides, and selected peptides representing key known structures in actin (Table 2 annotated). The peptides are synthesised on polyethylene pins which are presented to be compatible with standard 96 well microtitre plates. The pins become the solid phase on which interactions with CCT complexes can be probed. The method is described below. • 1. Take Pepset pins from storage at −20(° C.) and equilibrate at room temperature. • 2. Wash pins with PBS for 10 minutes at room temperature on a shaking table. • 3. Incubate pins with blocking buffer (2% w/v BSA 0.1% Tween 20 in PBS) for 60 minutes at room temperature on a shaker. • 4. Wash pins with PBS for 10 minutes at room temperature on a shaker (times 1) • 5. […] Remove pins from the microtitre plate and read the microtitre plate at 410 nm on a Dynatech ELISA plate reader. • 16. Results are expressed as a 410 nm absorbance reading for each well corresponding to each unique substrate peptide from the actin molecule. […]

## GGTTMYPGIADRMQK [substrate peptide 61]
  CCT binding to immobilised substrate peptide (410 nm absorbance reading): new protein interaction site

— patent US7018791B1, “Binding complexes” (Institute of Cancer Research: Royal Cancer Hospital, priority 1997, dated 2006)
